Data as given in US20100047226A1 (published 2010).

Tests used:
Experiment in all cases: cell-based or functional assay
p70S6K (active form) = p70S6K (active form) (UniProt P23443 1-421)
SGK (active form) = target: T1, SGK (active form) (UniProt O00141 60-431, limits assumed)
T1 sequence (looked up): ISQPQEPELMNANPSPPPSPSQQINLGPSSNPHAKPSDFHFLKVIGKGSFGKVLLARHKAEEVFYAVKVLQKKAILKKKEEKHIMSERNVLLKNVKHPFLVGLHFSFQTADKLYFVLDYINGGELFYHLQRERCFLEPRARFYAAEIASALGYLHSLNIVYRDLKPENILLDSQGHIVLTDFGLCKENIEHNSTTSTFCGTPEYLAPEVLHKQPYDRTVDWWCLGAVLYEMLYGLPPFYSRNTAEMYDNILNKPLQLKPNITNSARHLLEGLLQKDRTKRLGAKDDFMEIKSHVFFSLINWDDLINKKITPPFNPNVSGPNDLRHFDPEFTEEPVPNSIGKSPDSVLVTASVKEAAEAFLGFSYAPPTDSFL

TrkB (active form) = TrkB (active form) (UniProt Q16620 526-822, limits assumed)
PI3K[…] (active form) = target: PI3K[…] (active form)
AKT2 (active form) = AKT2 (active form) (UniProt P31751 120-481, limits assumed)
Abl (active form) = Abl (active form) (UniProt P00519 27-1130, limits assumed)
PAK3 (active form) = PAK3 (active form) (UniProt O75914 1-559, limits assumed)
JAK3 (active form) = JAK3 (active form) (UniProt P52333 781-1124, limits assumed)
Sequence of JAK3 (active form) (P52333 781-1124 limits assumed): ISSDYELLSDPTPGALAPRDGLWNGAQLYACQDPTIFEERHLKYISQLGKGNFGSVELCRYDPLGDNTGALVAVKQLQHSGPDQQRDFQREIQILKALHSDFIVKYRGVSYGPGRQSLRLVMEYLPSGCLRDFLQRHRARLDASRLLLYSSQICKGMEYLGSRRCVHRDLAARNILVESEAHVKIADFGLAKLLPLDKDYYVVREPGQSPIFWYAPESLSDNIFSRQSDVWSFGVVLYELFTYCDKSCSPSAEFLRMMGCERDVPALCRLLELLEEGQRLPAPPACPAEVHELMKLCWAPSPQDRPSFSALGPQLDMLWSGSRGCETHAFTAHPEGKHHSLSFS

Sequence of AKT2 (active form) (P31751 120-481 limits assumed): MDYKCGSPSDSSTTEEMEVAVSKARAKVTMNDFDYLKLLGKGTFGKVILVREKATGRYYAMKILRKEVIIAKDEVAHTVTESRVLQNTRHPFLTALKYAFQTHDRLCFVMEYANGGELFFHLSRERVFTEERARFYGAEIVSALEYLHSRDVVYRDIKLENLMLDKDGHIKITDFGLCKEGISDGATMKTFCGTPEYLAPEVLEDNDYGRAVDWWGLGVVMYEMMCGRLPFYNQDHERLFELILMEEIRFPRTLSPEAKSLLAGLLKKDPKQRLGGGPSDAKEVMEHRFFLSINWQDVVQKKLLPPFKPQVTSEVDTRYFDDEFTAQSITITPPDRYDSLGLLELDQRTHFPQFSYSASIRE
Sequence of Abl (active form) (P00519 27-1130 limits assumed): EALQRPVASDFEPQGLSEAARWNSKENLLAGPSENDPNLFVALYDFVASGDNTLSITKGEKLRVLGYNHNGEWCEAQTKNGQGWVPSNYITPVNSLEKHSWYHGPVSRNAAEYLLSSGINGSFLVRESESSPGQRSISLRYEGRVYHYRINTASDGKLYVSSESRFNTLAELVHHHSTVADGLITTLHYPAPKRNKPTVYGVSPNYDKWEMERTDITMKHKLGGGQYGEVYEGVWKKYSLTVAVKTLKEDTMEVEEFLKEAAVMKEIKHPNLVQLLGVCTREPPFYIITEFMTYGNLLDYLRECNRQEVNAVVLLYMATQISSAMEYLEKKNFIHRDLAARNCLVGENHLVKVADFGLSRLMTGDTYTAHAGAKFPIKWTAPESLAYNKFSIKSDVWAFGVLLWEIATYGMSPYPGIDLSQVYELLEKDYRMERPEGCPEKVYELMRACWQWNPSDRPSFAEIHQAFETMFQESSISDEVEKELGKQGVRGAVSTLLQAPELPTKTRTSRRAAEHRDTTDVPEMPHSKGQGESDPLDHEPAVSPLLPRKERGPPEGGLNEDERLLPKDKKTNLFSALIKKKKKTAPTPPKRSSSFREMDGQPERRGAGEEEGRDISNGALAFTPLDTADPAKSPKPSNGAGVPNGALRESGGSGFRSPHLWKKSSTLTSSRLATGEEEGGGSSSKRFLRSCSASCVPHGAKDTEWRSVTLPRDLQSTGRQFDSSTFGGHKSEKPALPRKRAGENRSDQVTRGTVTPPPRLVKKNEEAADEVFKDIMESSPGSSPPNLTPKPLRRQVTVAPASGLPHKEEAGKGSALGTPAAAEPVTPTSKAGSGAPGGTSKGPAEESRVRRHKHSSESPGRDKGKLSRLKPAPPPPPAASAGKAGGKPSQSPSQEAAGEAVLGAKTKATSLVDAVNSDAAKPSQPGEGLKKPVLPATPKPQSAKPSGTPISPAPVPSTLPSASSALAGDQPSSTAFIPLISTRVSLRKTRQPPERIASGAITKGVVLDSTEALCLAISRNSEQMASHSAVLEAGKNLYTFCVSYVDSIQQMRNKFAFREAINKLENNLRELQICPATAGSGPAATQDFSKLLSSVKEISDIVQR
Sequence of TrkB (active form) (Q16620 526-822 limits assumed): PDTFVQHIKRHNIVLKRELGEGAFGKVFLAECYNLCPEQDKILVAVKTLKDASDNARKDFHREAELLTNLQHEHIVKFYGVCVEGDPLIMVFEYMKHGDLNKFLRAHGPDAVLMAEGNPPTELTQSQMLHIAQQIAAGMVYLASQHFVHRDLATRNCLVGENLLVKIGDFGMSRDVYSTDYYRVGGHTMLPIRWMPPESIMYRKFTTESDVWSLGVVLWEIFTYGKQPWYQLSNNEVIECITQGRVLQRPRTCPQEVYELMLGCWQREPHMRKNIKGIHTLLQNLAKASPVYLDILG
Sequence of PAK3 (active form) (O75914 whole entry): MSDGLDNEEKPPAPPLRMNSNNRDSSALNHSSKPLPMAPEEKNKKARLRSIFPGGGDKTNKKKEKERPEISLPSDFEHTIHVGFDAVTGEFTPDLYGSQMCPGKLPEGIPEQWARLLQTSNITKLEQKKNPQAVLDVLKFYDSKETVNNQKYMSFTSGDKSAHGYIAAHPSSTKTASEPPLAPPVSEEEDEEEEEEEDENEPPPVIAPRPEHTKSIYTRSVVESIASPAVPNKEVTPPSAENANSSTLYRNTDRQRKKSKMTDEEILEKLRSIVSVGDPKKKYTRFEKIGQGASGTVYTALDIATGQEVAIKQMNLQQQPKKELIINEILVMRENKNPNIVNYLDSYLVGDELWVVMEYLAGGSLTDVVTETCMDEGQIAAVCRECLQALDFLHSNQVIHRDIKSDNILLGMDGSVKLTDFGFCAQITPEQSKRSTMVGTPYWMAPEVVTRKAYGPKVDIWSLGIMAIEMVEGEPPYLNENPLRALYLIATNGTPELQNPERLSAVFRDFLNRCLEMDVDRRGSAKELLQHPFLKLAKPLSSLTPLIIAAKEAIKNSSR
Sequence of p70S6K (active form) (P23443 1-421): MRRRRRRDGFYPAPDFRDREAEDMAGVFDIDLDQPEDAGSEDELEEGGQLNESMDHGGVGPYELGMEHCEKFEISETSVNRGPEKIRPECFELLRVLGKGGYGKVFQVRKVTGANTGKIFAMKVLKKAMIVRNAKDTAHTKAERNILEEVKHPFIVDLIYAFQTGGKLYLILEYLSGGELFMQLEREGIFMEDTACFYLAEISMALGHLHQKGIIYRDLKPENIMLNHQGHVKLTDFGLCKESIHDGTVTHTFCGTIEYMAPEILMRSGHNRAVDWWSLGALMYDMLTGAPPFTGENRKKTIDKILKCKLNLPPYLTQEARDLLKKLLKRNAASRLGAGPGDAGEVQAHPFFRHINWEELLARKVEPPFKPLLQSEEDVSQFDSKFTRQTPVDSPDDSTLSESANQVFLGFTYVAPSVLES

AKRVKGRTWTLCGTPEY [ZaTa peptide (PKAc fragment flanking Thr-197)]
in vitro kinase assay at ten times the IC50 for AKT1 (p70S6K (active form)): 64%
in vitro kinase assay at ten times the IC50 for AKT1 (SGK (active form)): 73%
in vitro kinase assay at ten times the IC50 for AKT1 (TrkB (active form)): 84%
in vitro kinase assay at ten times the IC50 for AKT1 (PI3K[…] (active form)): 72%
in vitro kinase assay at ten times the IC50 for AKT1 (AKT2 (active form)): 63%
in vitro kinase assay at ten times the IC50 for AKT1 (Abl (active form)): 42%
in vitro kinase assay at ten times the IC50 for AKT1 (PAK3 (active form)): 83%
in vitro kinase assay at ten times the IC50 for AKT1 (JAK3 (active form)): 79%
